Experiments:
[1] = molecular target: T-cell surface glycoprotein CD4 [Homo sapiens] (Homo sapiens) (UniProt P01730); experiment: cell-based or functional assay
[2] = molecular target: human T-cell receptor beta chain with variable region Vbeta 7.1 (H. sapiens rearranged TCR Vbeta 7.1) (H. sapiens); experiment: cell-based or functional assay
Sequence of human T-cell receptor beta chain with variable region Vbeta 7.1 (H. sapiens rearranged TCR Vbeta 7.1) (H. sapiens) (A0A577 whole entry, form in doubt): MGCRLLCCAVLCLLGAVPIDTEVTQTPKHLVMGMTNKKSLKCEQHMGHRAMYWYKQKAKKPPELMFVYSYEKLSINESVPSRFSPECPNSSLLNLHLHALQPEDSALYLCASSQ

CD4-positive cells remaining in the control culture (flow cytometry) [1]: 45% | TCR Vβ7.1-positive cells remaining in the control culture (flow cytometry) [2]: 1.2%
Substance: CART20 anti-CD20 chimeric antigen receptor (scFv of anti-CD20 monoclonal antibody Leu16 in the third-generation CAR backbone), expressed on transduced human T cells
